We go through 1 molecule from paper PMC5383250, “Functional studies of E. faecalis RNase J2 and its role in virulence and fitness” (PLoS ONE, 2017).

This assay concerns the target T1, E. faecalis RNase J2 (Enterococcus faecalis (strain OG1RF), UniProt Q836D0 1-562).
T1 construct: RNase J2 of Enterococcus faecalis, product of rnjB (ef1185); 1689 bp fragment PCR amplified from the OG1RF genome with primers 1185NdeF (begins at the ATG) and 1185XhoR (ends at the stop codon), in vector pQE30; recombinant protein M.W. 64.2 kDa; Vector pQE30; also called wild-type RNase J2; rnjB gene product; source: E. coli BL21, purified (Ni-NTA agarose)
T1 sequence (looked up): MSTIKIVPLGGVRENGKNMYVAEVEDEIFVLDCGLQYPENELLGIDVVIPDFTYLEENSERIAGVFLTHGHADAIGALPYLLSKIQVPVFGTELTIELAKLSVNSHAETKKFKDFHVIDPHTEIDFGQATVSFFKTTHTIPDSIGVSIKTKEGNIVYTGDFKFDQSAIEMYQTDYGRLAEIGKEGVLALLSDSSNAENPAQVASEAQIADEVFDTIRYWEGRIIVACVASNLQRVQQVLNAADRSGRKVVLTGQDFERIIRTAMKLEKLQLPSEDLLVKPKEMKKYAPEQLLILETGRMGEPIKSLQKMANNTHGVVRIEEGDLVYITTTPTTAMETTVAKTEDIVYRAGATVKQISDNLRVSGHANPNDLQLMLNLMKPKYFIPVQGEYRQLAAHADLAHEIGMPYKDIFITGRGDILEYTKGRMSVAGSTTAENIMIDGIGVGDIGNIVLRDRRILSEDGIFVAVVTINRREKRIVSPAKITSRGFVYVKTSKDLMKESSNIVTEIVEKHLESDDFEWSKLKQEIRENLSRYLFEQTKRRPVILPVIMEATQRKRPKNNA
The assay can be described thus: SPR; Biacore T100; E. faecalis RNase J1 immobilized on a CM5 sensor surface; J2 proteins 400 to 50 nM in duplicate; fitted to the 1:1 binding model. Particulars: both partners purified. (In general: In SPR one partner is held on a chip, and binding of the other changes the refractive index at the surface.)

For orientation: Kd means a measure of binding affinity in units of concentration. A low value points to a tighter complex.

B1: E. faecalis RNase J1 (enzyme)
chain: not shown
notes: recombinant protein M.W. 62.6 kDa; also called rnjA gene product; ef2924; source: E. coli BL21, purified (Ni-NTA agarose)
With B1, the Kd is 74 nM.
